{"source": "paper PMC3763809", "key": {"[1]": {"molecular_target": "H3(1-132)-LEEGLG nucleosome, first Glu of the tail to Ala (Drosophila | human) (UniProt P02299)", "assay": "ITC"}, "[2]": {"molecular_target": "H3(1-132)-LEEGLG nucleosome, second Glu of the tail to Ala (Drosophila | human) (UniProt P02299)", "assay": "ITC"}}, "data": [{"substance": "CENP-C central region, CENP-C(444-537) (from UniProt Q03188 444-537) (domain or fragment)", "values": [{"measurement": "factor of change of Kd against the H3(1-132)-LEEGLG nucleosome", "setting": "[1]", "value": 3, "unit": "fold"}, {"measurement": "factor of change of Kd against the H3(1-132)-LEEGLG nucleosome", "setting": "[2]", "value": 10, "unit": "fold"}]}]}
